# Patent US20230279089A1 (GlaxoSmithKline, published 2023)
# Values joined by “and” are separate entries in the source; they are usually repeats but may differ in a detail not shown here. Equal entries are not always repeated.
# T1: Mouse BMP1-3: 126-707 (mouse, UniProt P98063 126-707)
# T1 sequence (looked up): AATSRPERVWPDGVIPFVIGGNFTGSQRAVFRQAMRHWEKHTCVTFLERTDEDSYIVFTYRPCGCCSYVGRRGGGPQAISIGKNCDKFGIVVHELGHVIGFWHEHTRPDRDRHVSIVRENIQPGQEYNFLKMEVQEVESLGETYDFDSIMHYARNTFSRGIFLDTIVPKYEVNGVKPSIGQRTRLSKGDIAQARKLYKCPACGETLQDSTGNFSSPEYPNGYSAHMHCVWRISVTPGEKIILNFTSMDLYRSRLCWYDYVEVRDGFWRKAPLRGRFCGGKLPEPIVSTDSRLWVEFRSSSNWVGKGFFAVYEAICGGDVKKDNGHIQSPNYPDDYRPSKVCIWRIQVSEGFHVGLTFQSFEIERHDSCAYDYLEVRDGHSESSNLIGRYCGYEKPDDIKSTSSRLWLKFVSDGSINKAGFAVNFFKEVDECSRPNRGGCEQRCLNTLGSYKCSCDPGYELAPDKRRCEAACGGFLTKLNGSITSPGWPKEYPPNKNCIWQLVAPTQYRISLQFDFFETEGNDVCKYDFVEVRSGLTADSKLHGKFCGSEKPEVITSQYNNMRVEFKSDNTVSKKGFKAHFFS
# T2: Human BMP1-1 (human, UniProt P13497-2 121-730, limits assumed)
# T2 sequence (looked up): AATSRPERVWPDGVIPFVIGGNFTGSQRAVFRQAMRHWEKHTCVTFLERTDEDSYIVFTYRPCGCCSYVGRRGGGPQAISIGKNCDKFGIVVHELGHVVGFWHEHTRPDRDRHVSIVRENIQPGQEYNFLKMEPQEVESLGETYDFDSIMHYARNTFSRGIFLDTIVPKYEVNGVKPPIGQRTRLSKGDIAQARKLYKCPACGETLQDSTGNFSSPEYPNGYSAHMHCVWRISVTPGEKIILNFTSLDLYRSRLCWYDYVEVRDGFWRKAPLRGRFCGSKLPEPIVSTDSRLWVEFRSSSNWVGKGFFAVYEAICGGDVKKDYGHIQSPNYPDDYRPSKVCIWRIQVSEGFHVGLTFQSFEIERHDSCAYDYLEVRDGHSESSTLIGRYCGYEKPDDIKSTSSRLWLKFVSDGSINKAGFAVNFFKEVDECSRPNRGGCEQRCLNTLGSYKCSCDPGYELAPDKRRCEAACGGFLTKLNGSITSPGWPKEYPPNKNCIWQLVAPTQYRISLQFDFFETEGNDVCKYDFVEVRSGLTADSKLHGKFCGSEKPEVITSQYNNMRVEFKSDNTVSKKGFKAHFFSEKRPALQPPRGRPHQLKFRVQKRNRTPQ
# T3: Human BMP1 CD+CUB1 truncated antigen (human, UniProt P13497 121-434, limits assumed)
# T3 construct: domain: CD+CUB1
# T3 sequence (looked up): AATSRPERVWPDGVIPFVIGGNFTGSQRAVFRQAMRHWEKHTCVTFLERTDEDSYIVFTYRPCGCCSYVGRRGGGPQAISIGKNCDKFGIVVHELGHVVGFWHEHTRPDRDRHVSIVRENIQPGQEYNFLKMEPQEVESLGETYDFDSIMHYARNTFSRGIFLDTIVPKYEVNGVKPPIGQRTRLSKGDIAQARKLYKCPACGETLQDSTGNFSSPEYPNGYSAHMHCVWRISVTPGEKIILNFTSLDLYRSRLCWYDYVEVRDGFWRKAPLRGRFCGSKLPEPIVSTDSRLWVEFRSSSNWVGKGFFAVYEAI
# T4: Human TLL2 CD+CUB1 truncated antigen (human, UniProt Q9Y6L7 150-463, limits assumed)
# T4 construct: domain: CD+CUB1
# T4 sequence (looked up): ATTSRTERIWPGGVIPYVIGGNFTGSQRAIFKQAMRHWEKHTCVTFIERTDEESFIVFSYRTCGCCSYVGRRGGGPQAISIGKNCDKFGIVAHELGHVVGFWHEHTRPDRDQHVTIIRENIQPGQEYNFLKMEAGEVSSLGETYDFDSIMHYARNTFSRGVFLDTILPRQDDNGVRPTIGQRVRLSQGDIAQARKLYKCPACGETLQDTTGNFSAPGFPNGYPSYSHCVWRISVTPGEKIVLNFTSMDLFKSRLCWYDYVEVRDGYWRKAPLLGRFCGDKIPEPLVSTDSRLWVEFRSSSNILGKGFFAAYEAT
# T5: Mouse BMP1 CD+CUB1 truncated antigen (mouse, UniProt P98063 126-439, limits assumed)
# T5 construct: domain: CD+CUB1
# T5 sequence (looked up): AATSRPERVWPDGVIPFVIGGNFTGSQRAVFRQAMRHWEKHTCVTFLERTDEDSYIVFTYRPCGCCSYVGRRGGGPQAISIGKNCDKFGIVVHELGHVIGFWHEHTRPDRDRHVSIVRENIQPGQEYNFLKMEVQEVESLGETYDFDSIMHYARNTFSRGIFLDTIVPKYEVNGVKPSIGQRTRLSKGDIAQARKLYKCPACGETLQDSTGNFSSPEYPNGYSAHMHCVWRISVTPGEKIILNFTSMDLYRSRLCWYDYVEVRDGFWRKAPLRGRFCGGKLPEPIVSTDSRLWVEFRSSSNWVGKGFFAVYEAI
# Key:
# Mouse BMP1-3: 126-707 = biological target: T1, Mouse BMP1-3: 126-707; assay: cell-based or functional assay
# Human BMP1-1 = biological target: T2, Human BMP1-1; assay: cell-based or functional assay
# [1] = biological target: T3, Human BMP1 CD+CUB1 truncated antigen; assay: SPR, captured mAb, enzyme dilution buffer
# [2] = biological target: T4, Human TLL2 CD+CUB1 truncated antigen; assay: SPR, captured mAb, HBS-EP
# Protocol: (§1) Both antibodies 13Y039-4B06-4334 and 13Y039-3E07-2944 and the reverse chimeric antibodies were evaluated for binding to human TLL2 CD+CUB1 and mouse BMP1 CD+CUB1 truncated antigens by SPR on a BIACORE T200. Protein A/G was immobilised to a CM5 sensor chip via amine coupling and the antibodies were captured to the protein A/G surface. The antigens were passed over the captured antibody at various concentrations. The measured affinities to human TLL2 CD+CUB1 are shown in Table 2 and the measured affinities to mouse BMP1 CD+CUB1 are shown in Table 3.
# [3] = biological target: T5, Mouse BMP1 CD+CUB1 truncated antigen; assay: SPR, captured mAb, HBS-EP
# Protocol: as §1
# [4] = biological target: T3, Human BMP1 CD+CUB1 truncated antigen; assay: SPR, captured mAb, HBS-EP
"pKi, app, FRET enzyme activity, Mouse BMP1 (Mouse BMP1-3: 126-707)","pKi, app, FRET enzyme activity, Human BMP1 (Human BMP1-1)",Kd [1] [nM],binding result [2],Kd [3],Kd [4] [nM],Binder
11.3,11.8,,,,,13Y039-4B06-4334 human variable region on rat IgG2b LAGA Fc and rat Kappa (Compound C) (antibody) heavy: QVQLVQSGAEVKKPGASVKVSCKASGYTFLGYYMSWVRQAPGQGLEWMGWINPLSGETNYAQKFQGRVTMTRDTSISTAYMELSRLRSDDTAVYYCARDTGELDGMNWYFDLWGRGTLVTVSSAQTTAPSVYPLAPGCGDTTSSTVTLGCLVKGYFPEPVTVTWNSGALSSDVHTFPAVLQSGLYTLTSSVTSSTWPSQTVTCNVAHPASSTKVDKKVERRNGGIGHKCPTCPTCHKCPVPELAGAPSVFIFPPKPKDILLISQNAKVTCVVVDVSEEEPDVQFSWFVNNVEVHTAQTQPREEQYNSTFRVVSALPIQHQDWMSGKEFKCKVNNKALPSPIEKTISKPKGLVRKPQVYVMGPPTEQLTEQTVSLTCLTSGFLPNDIGVEWTSNGHIEKNYKNTEPVMDSDGSFFMYSKLNVERSRWDSRAPFVCSVVHEGLHNHHVEKSISRPPGK light: EIVLTQSPATLSLSPGERATLSCRASQSVSSYLAWYQQKPGQAPRLLIYDASNRATGIPARFSGSGSGTDFTLTISSLEPEDFAVYYCQQSDSWPPTFGGGTKVEIKRADAAPTVSIFPPSTEQLATGGASVVCLMNNFYPRDISVKWKIDGTERRDGVLDSVTDQDSKDSTYSMSSTLSLTKADYESHNLYTCEVVHKTSSSPVVKSFNRNEC
,,0.07,no binding,2.66 nM and 6.2 nM,5.31,"13Y039-3E07-2944 human variable region on mouse IgG2a LAGA Fc, mouse cKappa (Compound B) (antibody, Reverse chimera; also called 13Y039-3E07-2944, mIgG2a LAGA) heavy: QVQLQQWGAGLLKPSETLSLTCAVYGGSFFGDYWSWIRQPPGKGLEWIGEIDWSGATNYNPSLKSRVTISVDTSKNQFSLKLSSVTAADTAVYYCARGGSKELSFDIWGQGTMVTVSSAKTTAPSVYPLAPVCGDTTGSSVTLGCLVKGYFPEPVTLTWNSGSLSSGVHTFPAVLQSDLYTLSSSVTVTSSTWPSQSITCNVAHPASSTKVDKKIEPRGPTIKPCPPCKCPAPNLAGAPSVFIFPPKIKDVLMISLSPIVTCVVVDVSEDDPDVQISWFVNNVEVHTAQTQTHREDYNSTLRVVSALPIQHQDWMSGKEFKCKVNNKDLPAPIERTISKPKGSVRAPQVYVLPPPEEEMTKKQVTLTCMVTDFMPEDIYVEWTNNGKTELNYKNTEPVLDSDGSYFMYSKLRVEKKNWVERNSYSCSVVHEGLHNHHTTKSFSRTPGK light: DIQMTQSPSSLSASVGDRVTITCQASQDIANYLNWYQQKPGKAPKLLIYDASNLETGVPSRFSGSGSGTDFTFTISSLQPEDIATYYCQQADTLPFTFGGGTKVEIKRADAAPTVSIFPPSSEQLTSGGASVVCFLNNFYPKDINVKWKIDGSERQNGVLNSWTDQDSKDSTYSMSSTLTLTKDEYERHNSYTCEATHKTSTSPIVKSFNRNEC"
